Source: patent US20220396628A1
Numbering of substitutions follows the chain as printed.

B1: KIP-10 Clone 15-2 (antibody, V domains shown)
VH: QEQLVESGGGLVKPGASLTLTCKASGFSFSVGYDMCWVRQAPGKGLEWIACIDTDSSSRTWNASWAKGRFTISKPSSTTVTLQMTSLTAADTATYFCARNDDTSGWGSKLWGPGTLVTVSS
VL: DVVMTQTPASVSEPVGGTVTIKCQASQTIGSALAWYQQKPGQPPKLLIYTASNLASGVSSRFKGSRSGTEFTLTISDLECADAATYYCQHTFYGTSYVDAFGGGTEVVVK
B2: KIP-10 Clone 148-4 (antibody, V domains shown)
VH: QEQLEESGGDLVKPEGSLTLTCTASGFSFSGSFDVCWVRQAPGKGLEWIACIVVDSSDRTWYASWAKGRFTISKPSSTTVTLQMTSLTAADTATYFCARNDDTSGWGFNLWGPGTLVTVSS
VL: B1 VL with V3T, T28S, Y49W, E70D, H90C, F92Y, T95S, V98I, D99N
B3: KIP-10 Clone 63-2 (antibody, V domains shown)
VH: QQQLEESGGGLVKPGGTLTLTCKASGFSFSSDYDMCWVRQAPGKGLEWIACIYAGSSDNTYYATWAKGRFTISKTSSTTVTLQMTSLTAADTATYFCARDTADINFYFKLWGPGTLVTVSS
VL: DIVMTQTPASVSAAVGGTVTIKCQASESVSRWLAWYQQKPGQPPNLLIYSASTLASGVPSRFRGSGSGTEYTLTISDLECADAATYYCQGGYYSGGETYHNSFGGGTEVVVK
B4: KIP-10 Clone 103-2 (antibody, V domains shown)
VH: QSVEESGGRLVTPGTPLTLTCTVSGFSLGSYYMSWVRQAPGKGLEWIGIIYQSGNTDYASWAKGRFTISKTSSTTVDLKMTSLTTEDTATYFCAREGYAGYVGYSYNIWGPGTLVTVSS
VL: AYDMTQTPASVSAAVGGTVSINCQASEDIESYLAWYQQRPGQPPKLLIYSASTLASGVSSRFKGSGSGTQFTLTISDLECADAATYYCQQGASSNDVEEPFGGGTEVVVK
B5: KIP-10 Clone 160-1 (antibody, V domains shown)
VH: QSLEESGGDLVKPGASLTLTCTASGFSFSSNYFVCWVRQAPGKGLEWVGCINPGSGRTYSASWAKGRFTISKSSSTTVTLQMTSLTAADTATYFCARDRPGSDDYYMRDLWGPGTLVTVSS
VL: DPVMTQTPASVSEPVGGTVTINCQASESIGSSLAWYQQKPGQPPKLLIYAASTLASGVSSRFKGSGSGTQFTLTISDLECADAATYYCQCSYYLNTYVGNPFGGGTEVVVK
B6: KIP-10 Clone 147-1 (antibody, V domains shown)
VH: QEQLEESGGDLVKPEGSLTLTCTASGFSFSGDYYMCWVRQAPGKGLEWIACIYVGSYIYSFYASWAKGRFTISRTSSTTVTLQMTSLTAADTATYFCARDPFATDSDVVSLWGPGTLVTVSS
VL: AVVLTQTPASVSAAVGGTVTINCQASQSISTVLAWYQQKPGQRPKLLIYWASTLASGVPSRFKGSGSGTQFTLTISGVECDDAATYYCAGYKSYSNDDGAFGGGTEVVVK
B7: KIP-10 Clone 180-2 (antibody, V domains shown)
VH: QSLEESGGGLVQPGGSLKLSCKASGFIFSDNYYMCWVRQAPGKGLELIACIYGGHIDTTYYASWVSGRFTSSKTSSTTVTLQLTSLTAADTATYFCARRTIYDDNDDYSYALHLWGPGTLVTVSS
VL: ALVMTQTPSSVSEPVGGTVTINCQASQSISNLLAWYQQKPGQPPKLLIYGASNLESGVPSRFKGSGSGTEYTLTISGVECADAATYYCQQGDSSSNLDNTFGGGTEVVVK

target: control CAR 2, expressed on T cells; assay: flow cytometry histogram; hybridoma clonal supernatant on control CAR 2-expressing T cells, detected with FITC goat anti-rabbit F(ab')2; fraction of events in the CAR+ gate

Binder | CAR+
B1 | 0.063
B2 | 0.021
B3 | 0.021
B4 | 0.011
B5 | 0.021
B6 | 0.053

target: control CAR3, expressed on T cells; assay: flow cytometry histogram; hybridoma clonal supernatant on control CAR 3-expressing T cells, detected with FITC goat anti-rabbit F(ab')2; fraction of events in the CAR+ gate; parameters: unit not given here

Binder | CAR+
B7 | 0.011
B1 | 0.011
B2 | 0.011
B5 | 0.011
B6 | 0.011

target: anti-CLL-1 CAR (chimeric antigen receptor presenting the anti-CLL-1 scFv), expressed on primary human T cells; assay: flow cytometry histogram; hybridoma clonal supernatant on anti-CLL-1 CAR-transduced primary human T cells, detected with FITC goat anti-rabbit F(ab')2; fraction of events in the CAR+ gate

Binder | CAR+
B7 | 57.7
B1 | 58
B2 | 55.8
B3 | 57.8
B4 | 55.9
B5 | 55.6
B6 | 57.7
